# Reference: US5811393A (The Childrens Medical Center Corp., priority 1993, dated 1998)
# B1: HB-EHM: novel heparin binding growth factor with EGF-homologous segment, purified from U-937 lymphoma cell conditioned medium, about 22 kD (protein)
# chain: RVTLSSKPQALATPNKEEHGKRKKKGKGLGKKRDPCLRKYKDFCIHGECKYVKELRAPSCICHPGYHGERCHGLS
# modifications: O-linked glycosylation (suggested by O-glycanase treatment; the threonines predicted at positions 2 and 12 of the form first sequenced were not detected in protein sequencing)
# Assays:
# EGF receptors on BASMC = experiment: Competitive [125I]EGF binding to bovine aortic smooth muscle cells
# Procedure: (§1) Competitive binding assays were used to measure this interaction and were performed as follows.
# [1] = tested on: bovine capillary endothelial cells; experiment: Proliferation / DNA synthesis of bovine capillary endothelial cells; format: cell-based; conditions: purified form
# Procedure: (§2) Conditioned medium was assayed for growth factor activity directly, as described below, using either fibroblasts (i.e., BALB/c mouse 3T3 cells), epithelial cells (i.e., human keratinocytes), or smooth muscle cells (i.e., bovine aortic smooth muscle cells, BASMC). Alternatively, CM was first fractionated by fast protein liquid chromatography (FPLC, Pharmacia, Piscataway, N.J.) by applying 500 ml of the CM to a TSK-heparin 5PW column (8×75 mm, TOSOHAAS, Philadelphia, Pa.). The column was washed with 10 column volumes of equilibration buffer (0.2M NaCl, 0.01M Tris-HCl, pH 7.5), and bound protein was eluted with a 40 ml linear gradient of 0.2-2M NaCl in 0.01M Tris-HCl , pH 7.4 at 1 ml/min. Fractions (2.5 ml) were tested for growth factor activity by measuring the effect of aliquots of the fractions on DNA synthesis in, or the proliferation of, BALB/c mouse 3T3 cells; such activity was monitored by assaying the incorporation of [^3 H]-thymidine into DNA and/or by measuring the increase in cell number. Measurement of DNA synthesis in BALB/c mouse 3T3 cells was performed as described by Shing et al. (223 Science 1296, 1984, hereby incorporated by reference). One unit of BALB/c mouse 3T3 stimulation activity was defined as the amount of growth factor required to stimulate half-maximal DNA synthesis in BALB/c mouse 3T3 cells under the conditions described in Shing et al. (supra). […]
# [2] = Stability of growth-stimulatory activity to acid, heat and DTT (read out in BALB/c 3T3 [3H]-thymidine assay); format: physicochemical
# Procedure: as §2, with “(supra). To measure DNA synthesis in bovine capillary endothelial cells, cells were trypsinized and re-plated sparsely (1×10^4 cells/well) with 400 μl of Dulbecco's modified Eagle's medium (DMEM, GIBCO, Grand Island, N.Y.) supplemented with 10% bovine calf serum (GIBCO, Grand Island, N.Y.) and antibiotics (100 units/ml penicillin and 100 μg/ml streptomycin sulfate, GIBCO, Grand Island, N.Y.) in 48-well plates (Costar, Cambridge, Mass.). After 24 hours of incubation, the medium was replaced with the same volume of DMEM supplemented with 2% bovine calf serum, antibiotics, 1 μM thymidine and 0.5% bovine serum albumin. After 24 hours of incubation, the test samples were added to the wells. Eighteen hours later, [^3 H]-thymidine (0.6 uCi/well, New England Nuclear, Wilmington, Del.) was added. After an additional 5 hours, each plate was treated by the same procedure as used to harvest the BALB/c mouse 3T3 cells to measure the incorporation of [^3 H]-thymidine into the DNA of the cells. To measure DNA synthesis in bovine aortic smooth muscle cells (from Dr. H. Weich, Children's Hospital, Boston), the cells were trypsinized and re-plated sparsely (1×10^4 cells/well) with 400 μl of DMEM supplemented with 10% Colorado calf serum (Colorado Serum Company) and antibiotics (100 units/ml penicillin and 100 μg/ml streptomycin sulfate, GIBCO, Grand Island, N.Y.) in 48-well plates.” for “(supra).”
# [3] = tested on: bovine aortic smooth muscle cells (BASMC); experiment: Bovine aortic smooth muscle cell proliferation by cell counting; format: cell-based; conditions: 100 pg/ml; cells counted after three days, 1% calf serum
# Procedure: Bovine aortic smooth muscle cell proliferation was also assayed by counting cell number following growth factor stimulation. In these experiments, cells were plated sparsely in 24 well plates in DMEM/10% bovine calf serum/1% GPS (100% GPS is glutamine 29.2 mg/ml, penicillin 10,000 units/ml, streptomycin sulfate 10,000 μg/ml; GIBCO, Grand Island, N.Y.) at 10^4 cells/well. Test samples were then added and, after three days, cells were removed by trypsinization and counted in a Coulter counter (Coulter, Hialeah, Fla.).
# BASMC were plated in DMEM, 10% calf serum, 100 U/ml penicillin, 100 μg/ml streptomycin sulfate at 5×10^3 cells/well in a 24 well plate, and, after attachment of the cells (e.g., following an overnight incubation), the media was replaced with DMEM, 1% calf serum, and penicillin and streptomycin as above. HB-EHM, recombinant human EGF (Creative Biomolecules, Hopkinton, Mass.), or recombinant PDGF (Creative Biomolecules, Hopkinton, Mass.) was then added to the wells. Cells were counted after three days.
# [4] = tested on: EGF receptors on A-431 cells; experiment: Competitive [125I]EGF binding to A-431 cells; design: species or system human
# Procedure: as §1
# EGF receptor = EGF receptor autophosphorylation in A-431 cells (anti-phosphotyrosine Western blot); format: cell-based, human; conditions: 5 ng/ml, 15 minutes
# Procedure: This was shown by plating A-431 cells in 6-well plates and culturing in Dulbecco's Modified Eagle's Medium (DMEM) containing 10% fetal bovine serum and antibiotics. […] After 15 minutes, the cells were washed with ice-cold phosphate-buffered saline containing 0.4 mm EDTA, 10 mM Na-fluorate, 10 mM Na-pyrophosphate and 0.4 mM Na-orthovanadate, scraped and lysed in 100 μl of PI/RIPA buffer [1% NP-40 (Pierce, Rockford, Ill.), 1% deoxycholate (Aldrich, Milwaukee, Wis.), 0.1% SDS, 1% aprotinin (Boehringer-Mannheim, Indianapolis, Ind.), 1 mM PMSF (Pierce), 2 mM EDTA (Sigma), 10 mM Na-fluorate, (Sigma, St. Louis, Mo.), 10 mM Na-pyrophosphate (Baker, Phillipsburg, N.J.), 0.4 mM Na-orthovanadate, (Aldrich), 10 mM iodoacetamide (Aldrich) in phosphate buffered saline]. Thirty μl of supernatant clarified by spinning for a 5 minute period in a microfuge was analyzed by reducing SDS/polyacrylamide gel electrophoresis (6% polyacrylamide gel). […] A standard of phosphorylated EGF receptor was purchased from UBI (Lake Placid, N.Y.).
molecule,measurement,setting,value
B1,50% inhibition of [125I]EGF binding,"EGF receptors on BASMC; BASMC, 6-well plates",63 pg/mL
same,binding to EGF receptors on SMC,EGF receptors on BASMC; purified HB-EHM,found to bind
same,proliferation of bovine capillary endothelial cells,[1],did not stimulate proliferation
same,growth-stimulatory activity after exposure to DTT,"[2]; 5 mM DTT for 2 hours, 3T3 [3H]-thymidine readout",destroyed completely
same,activity after acid treatment with glycine-HCl,"[2]; 0.1M glycine-HCl, pH 2.5 for 2 hours",not lost
same,growth-stimulatory activity after heating,"[2]; 90° C. for 5 minutes, 3T3 [3H]-thymidine readout",not destroyed
same,growth-stimulatory activity after exposure to pH 2.5,"[2]; pH 2.5 for 2 hours, 3T3 [3H]-thymidine readout",resistant
same,increase in BASMC proliferation,[3],2.5 fold
same,inhibition of the binding of [125I]EGF to A-431 cells,"[4]; maximal competition, confluent A-431 cells",~100%
same,binding to EGF receptors on A-431 cells,[4]; purified HB-EHM,found to bind
same,autophosphorylation of the EGF receptor (170 kDa protein),EGF receptor,triggered autophosphorylation
